Test results taken from paper PMC10132618.

Key:
[1] = target: T1, GST-Fob1 (prep also contains free Fob1) (Saccharomyces cerevisiae) (UniProt O13329); assay: EMSA; conditions: 10 mM Tris pH 7.5, 1 mM EDTA, 0.1 M KCl, 0.1 mM DTT, 5% glycerol, 20 ul, 30 C 30 min; 6% PAGE in 0.5X TBE
T1 sequence: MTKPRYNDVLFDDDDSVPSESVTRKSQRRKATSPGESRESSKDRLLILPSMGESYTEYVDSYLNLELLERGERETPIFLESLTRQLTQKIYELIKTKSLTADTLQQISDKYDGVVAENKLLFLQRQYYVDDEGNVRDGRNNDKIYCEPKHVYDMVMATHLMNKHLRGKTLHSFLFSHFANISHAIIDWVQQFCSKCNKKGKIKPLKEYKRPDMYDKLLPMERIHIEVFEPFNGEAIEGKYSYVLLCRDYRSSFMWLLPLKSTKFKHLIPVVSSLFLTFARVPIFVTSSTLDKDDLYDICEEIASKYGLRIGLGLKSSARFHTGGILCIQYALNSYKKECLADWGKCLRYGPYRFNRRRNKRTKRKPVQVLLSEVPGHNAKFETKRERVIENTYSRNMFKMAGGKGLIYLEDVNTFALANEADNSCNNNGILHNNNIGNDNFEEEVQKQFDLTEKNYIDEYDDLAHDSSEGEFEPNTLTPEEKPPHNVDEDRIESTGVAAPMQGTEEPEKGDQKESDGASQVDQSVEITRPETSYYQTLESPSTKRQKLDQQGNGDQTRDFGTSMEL

[2] = target: T1, GST-Fob1 (prep also contains free Fob1) (Saccharomyces cerevisiae); assay: competition; conditions: 10 mM Tris pH 7.5, 1 mM EDTA, 0.1 M KCl, 0.1 mM DTT, 5% glycerol, 20 ul, 30 C 30 min; 6% PAGE in 0.5X TBE

For “TGCTAGTGTTTGCAAGATGGTGCTTTTTTTTCTTTAGATTGCCACGTTTCTGCTCCT (double strand) [RDT1 promoter probe (57 bp)]”, the binding [1] was “binds” and the binding [2] was “binds”.
